Tests used:
ADI-70327 = target: T1, ADI-70327; assay: SPR Carterra, yeast anti-ID
T1 construct: anti-CD3 antibody made in CHO cells, captured by anti-human Fc
Method in brief: (§1)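 Measured at 25° C in HBSTE running buffer on a Carterra LSA; anti-CD3 antibodies (100 nM) were captured for 5 min on an amine-coupled goat anti-human Fc HC30M chip. Anti-idiotype dissociation was followed for 300s, and double-referenced sensorgrams were fitted to a 1:1 binding model.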

ADI-67445 = target: T2, ADI-67445; assay: SPR Carterra, yeast anti-ID
T2 construct: anti-CD3 antibody made in CHO cells, captured by anti-human Fc
Method in brief: as §1

CTL-62223 = target: T3, CTL-62223; assay: SPR Carterra, yeast anti-ID
T3 construct: also called mosunetuzumab
Method in brief: as §1

CTL-62227 = target: T4, CTL-62227; assay: SPR Carterra, yeast anti-ID
T4 construct: also called odronextamab
Method in brief: as §1

CTL-62228 = target: T5, CTL-62228; assay: SPR Carterra, yeast anti-ID
T5 construct: also called glofitamab
Method in brief: as §1

CTL-62240 = target: T6, CTL-62240; assay: SPR Carterra, yeast anti-ID
T6 construct: also called ONO-4685
Method in brief: as §1

ADI-22523 IgG = target: T7, ADI-22523 IgG; assay: BLI; tip anti-CD3 IgG, solution ADI-34145 IgG
T7 construct: anti-CD3 IgG
Experimental: (§2) ForteBio affinity measurements were performed generally as previously described (Estep et al., MAbs. 2013 5(2):270-8). Briefly, ForteBio affinity measurements were performed by loading antibody IgG or Fabs on-line onto AHC sensors. Sensors were equilibrated off-line in assay buffer for 30 minutes and then monitored on-line for 60 seconds for baseline establishment. For avid binding measurement, sensors with loaded antibodies were exposed to IgG or Fab solutions for 3 minutes, afterwards they were transferred to assay buffer for 3 minutes for off-rate measurement. Kinetics data were fit using a 1:1 binding model in the data analysis software provided by ForteBio to obtain equilibrium dissociation constant (KD=koff/kₒₙ) values. In each column, tip-immobilized antibodies are listed first and solution antibodies second.
(§3) CTL-19613 is an IgG1 antibody prepared with anti-CD3 variable domains corresponding with those of clone 12C described in United States Publication Number US 2010/0183615 (e.g., see paragraphs 469-479 and FIG. 25 thereof), which also make up the CD3 binding domain of the bispecific antibody pasotuxizumab. […] In each column, tip-immobilized antibodies are listed first and solution antibodies second.

ADI-26954 IgG = target: T8, ADI-26954 IgG; assay: BLI; tip anti-CD3 IgG, solution ADI-34145 IgG
T8 construct: anti-CD3 IgG
Experimental: as §2, §3

CTL-19613 IgG = assay: BLI; tip anti-CD3 IgG, solution ADI-34145 IgG
Experimental: as §2, §3

CTL-19672 IgG = target: T9, CTL-19672 IgG; assay: BLI; tip anti-CD3 IgG, solution ADI-34145 IgG
T9 construct: IgG1 with the anti-CD3 variable domains of clone 38E4v1
Experimental: as §2, §3

ADI-26906 IgG = target: T10, ADI-26906 IgG; assay: BLI; tip anti-CD3 IgG, solution ADI-34145 IgG
T10 construct: anti-CD3 IgG
Experimental: as §2, §3

ADI-26913 IgG = target: T11, ADI-26913 IgG; assay: BLI; tip anti-CD3 IgG, solution ADI-34145 IgG
T11 construct: anti-CD3 IgG
Experimental: as §2, §3

ADI-26920 IgG = target: T12, ADI-26920 IgG; assay: BLI; tip anti-CD3 IgG, solution ADI-34145 IgG
T12 construct: anti-CD3 IgG
Experimental: as §2, §3

ADI-26916 IgG = target: T13, ADI-26916 IgG; assay: BLI; tip anti-CD3 IgG, solution ADI-34145 IgG
T13 construct: anti-CD3 IgG
Experimental: as §2, §3

ADI-22523 Fab = target: T14, ADI-22523 Fab; assay: BLI; tip ADI-34134 IgG, solution anti-CD3 Fab
T14 construct: anti-CD3 Fab by papain digestion of the IgG
Experimental: as §2, §3

ADI-26906 Fab = target: T15, ADI-26906 Fab; assay: BLI; tip ADI-34134 IgG, solution anti-CD3 Fab
T15 construct: anti-CD3 Fab by papain digestion of the IgG
Experimental: as §2, §3

ADI-26913 Fab = target: T16, ADI-26913 Fab; assay: BLI; tip ADI-34134 IgG, solution anti-CD3 Fab
T16 construct: anti-CD3 Fab by papain digestion of the IgG
Experimental: as §2, §3

ADI-26916 Fab = target: T17, ADI-26916 Fab; assay: BLI; tip ADI-34134 IgG, solution anti-CD3 Fab
T17 construct: anti-CD3 Fab by papain digestion of the IgG
Experimental: as §2, §3

ADI-26920 Fab = target: T18, ADI-26920 Fab; assay: BLI; tip ADI-34134 IgG, solution anti-CD3 Fab
T18 construct: anti-CD3 Fab by papain digestion of the IgG
Experimental: as §2, §3

ADI-26921 Fab = target: T19, ADI-26921 Fab; assay: BLI; tip ADI-34134 IgG, solution anti-CD3 Fab
T19 construct: anti-CD3 Fab by papain digestion of the IgG
Experimental: as §2, §3

ADI-26927 Fab = target: T20, ADI-26927 Fab; assay: BLI; tip ADI-34134 IgG, solution anti-CD3 Fab
T20 construct: anti-CD3 Fab by papain digestion of the IgG
Experimental: as §2, §3

ADI-26928 Fab = target: T21, ADI-26928 Fab; assay: BLI; tip ADI-34134 IgG, solution anti-CD3 Fab
T21 construct: anti-CD3 Fab by papain digestion of the IgG
Experimental: as §2, §3

ADI-26941 Fab = target: T22, ADI-26941 Fab; assay: BLI; tip ADI-34134 IgG, solution anti-CD3 Fab
T22 construct: anti-CD3 Fab by papain digestion of the IgG
Experimental: as §2, §3

CTL-19613 Fab = target: T23, CTL-19613 Fab; assay: BLI; tip ADI-34134 IgG, solution anti-CD3 Fab
T23 construct: anti-CD3 Fab by papain digestion of the IgG1
Experimental: as §2, §3

T8 sequence (VH, as listed by the source limits assumed, chain 1 of 2): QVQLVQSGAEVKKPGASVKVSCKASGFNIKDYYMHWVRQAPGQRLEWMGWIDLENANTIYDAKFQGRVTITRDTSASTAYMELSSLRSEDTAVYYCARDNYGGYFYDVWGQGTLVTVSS
T8 sequence (VL, as listed by the source limits assumed, chain 2 of 2): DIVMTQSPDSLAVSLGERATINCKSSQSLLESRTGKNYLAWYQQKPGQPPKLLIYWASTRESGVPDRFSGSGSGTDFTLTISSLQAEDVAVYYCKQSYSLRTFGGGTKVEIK
T9 sequence (VH, as listed by the source limits assumed, chain 1 of 2): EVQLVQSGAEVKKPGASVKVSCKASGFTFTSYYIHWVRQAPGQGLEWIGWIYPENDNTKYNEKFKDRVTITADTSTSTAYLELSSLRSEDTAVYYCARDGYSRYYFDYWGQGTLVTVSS
T9 sequence (VL, as listed by the source limits assumed, chain 2 of 2): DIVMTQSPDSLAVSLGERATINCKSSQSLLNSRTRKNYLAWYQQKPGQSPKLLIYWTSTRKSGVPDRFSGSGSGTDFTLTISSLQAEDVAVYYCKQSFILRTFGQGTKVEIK
T13 sequence (VH, as listed by the source, chain 1 of 2): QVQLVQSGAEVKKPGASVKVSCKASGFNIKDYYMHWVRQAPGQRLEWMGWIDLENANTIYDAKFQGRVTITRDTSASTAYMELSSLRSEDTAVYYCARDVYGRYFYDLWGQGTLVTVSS
T13 sequence (VL, as listed by the source, chain 2 of 2): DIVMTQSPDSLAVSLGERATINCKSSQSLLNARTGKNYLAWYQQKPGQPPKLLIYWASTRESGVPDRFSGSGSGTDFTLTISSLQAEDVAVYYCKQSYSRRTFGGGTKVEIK
T19 sequence (VH, as listed by the source limits assumed, chain 1 of 2): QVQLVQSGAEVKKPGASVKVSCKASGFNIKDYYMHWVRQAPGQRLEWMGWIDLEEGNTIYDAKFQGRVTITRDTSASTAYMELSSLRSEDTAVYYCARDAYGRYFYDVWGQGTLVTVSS
T19 sequence (VL, as listed by the source limits assumed, chain 2 of 2): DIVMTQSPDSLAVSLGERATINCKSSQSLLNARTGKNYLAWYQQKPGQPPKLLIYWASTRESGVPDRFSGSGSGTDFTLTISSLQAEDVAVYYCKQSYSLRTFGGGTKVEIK
T2 sequence (VH, as listed by the source limits assumed, chain 1 of 2): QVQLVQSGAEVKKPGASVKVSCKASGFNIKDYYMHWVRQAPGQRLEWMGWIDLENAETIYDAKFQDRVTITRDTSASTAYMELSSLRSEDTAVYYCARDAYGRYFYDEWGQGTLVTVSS
T3 sequence (VH, as listed by the source, chain 1 of 2): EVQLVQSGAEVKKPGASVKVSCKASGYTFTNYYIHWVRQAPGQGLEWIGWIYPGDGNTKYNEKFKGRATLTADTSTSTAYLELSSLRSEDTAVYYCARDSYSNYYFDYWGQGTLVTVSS
T3 sequence (VL, as listed by the source, chain 2 of 2): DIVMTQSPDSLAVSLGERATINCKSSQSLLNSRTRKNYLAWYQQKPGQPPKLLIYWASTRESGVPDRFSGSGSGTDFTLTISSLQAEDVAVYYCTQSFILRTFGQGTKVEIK
T7 sequence (VH, as listed by the source limits assumed, chain 1 of 2): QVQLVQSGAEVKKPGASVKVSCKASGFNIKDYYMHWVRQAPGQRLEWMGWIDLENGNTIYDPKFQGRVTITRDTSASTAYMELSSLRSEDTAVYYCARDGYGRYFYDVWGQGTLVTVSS
T7 sequence (VL, as listed by the source limits assumed, chain 2 of 2): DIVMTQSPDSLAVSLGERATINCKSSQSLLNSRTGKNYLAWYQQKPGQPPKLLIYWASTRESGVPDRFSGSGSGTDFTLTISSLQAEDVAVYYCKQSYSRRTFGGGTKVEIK
T12 sequence (VH, as listed by the source limits assumed, chain 1 of 2): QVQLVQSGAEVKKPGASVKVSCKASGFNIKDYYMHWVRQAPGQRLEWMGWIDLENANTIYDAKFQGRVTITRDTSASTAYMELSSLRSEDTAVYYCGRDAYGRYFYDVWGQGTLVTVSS
T11 sequence (VH, as listed by the source limits assumed, chain 1 of 2): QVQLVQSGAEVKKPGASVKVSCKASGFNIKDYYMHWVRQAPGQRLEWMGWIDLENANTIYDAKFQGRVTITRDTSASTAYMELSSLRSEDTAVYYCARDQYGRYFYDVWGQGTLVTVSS
T21 sequence (VH, as listed by the source limits assumed, chain 1 of 2): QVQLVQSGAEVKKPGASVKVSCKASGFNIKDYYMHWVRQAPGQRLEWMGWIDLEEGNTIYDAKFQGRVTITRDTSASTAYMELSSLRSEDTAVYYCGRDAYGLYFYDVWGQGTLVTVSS
T20 sequence (VH, as listed by the source limits assumed, chain 1 of 2): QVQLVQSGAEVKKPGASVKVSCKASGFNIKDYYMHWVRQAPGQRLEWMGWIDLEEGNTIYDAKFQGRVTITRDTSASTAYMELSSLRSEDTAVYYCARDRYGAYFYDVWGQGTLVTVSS
T22 sequence (VH, as listed by the source limits assumed, chain 1 of 2): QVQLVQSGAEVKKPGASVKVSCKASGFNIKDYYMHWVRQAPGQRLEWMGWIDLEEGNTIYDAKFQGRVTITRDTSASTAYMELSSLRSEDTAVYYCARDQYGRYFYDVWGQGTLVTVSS
T22 sequence (VL, as listed by the source limits assumed, chain 2 of 2): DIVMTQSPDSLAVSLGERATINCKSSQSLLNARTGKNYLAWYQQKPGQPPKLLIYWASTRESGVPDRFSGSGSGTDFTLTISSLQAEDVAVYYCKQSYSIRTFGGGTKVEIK
T10 sequence (VH, as listed by the source limits assumed, chain 1 of 2): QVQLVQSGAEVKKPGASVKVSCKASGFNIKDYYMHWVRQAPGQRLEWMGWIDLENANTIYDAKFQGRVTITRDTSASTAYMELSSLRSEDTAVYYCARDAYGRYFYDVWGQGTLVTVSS
T1 sequence (VH, as listed by the source limits assumed, chain 1 of 2): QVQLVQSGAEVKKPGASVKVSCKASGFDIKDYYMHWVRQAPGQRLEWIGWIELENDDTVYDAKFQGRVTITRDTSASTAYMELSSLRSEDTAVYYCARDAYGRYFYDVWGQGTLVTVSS
T1 sequence (VL, as listed by the source limits assumed, chain 2 of 2): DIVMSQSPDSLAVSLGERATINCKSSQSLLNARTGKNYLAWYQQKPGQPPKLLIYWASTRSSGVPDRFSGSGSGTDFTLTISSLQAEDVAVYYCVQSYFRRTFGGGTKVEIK
T6 sequence (VH, as listed by the source, chain 1 of 2): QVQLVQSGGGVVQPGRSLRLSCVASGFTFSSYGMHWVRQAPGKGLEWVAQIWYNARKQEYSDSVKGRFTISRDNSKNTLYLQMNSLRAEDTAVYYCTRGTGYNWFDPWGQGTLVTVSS
T6 sequence (VL, as listed by the source, chain 2 of 2): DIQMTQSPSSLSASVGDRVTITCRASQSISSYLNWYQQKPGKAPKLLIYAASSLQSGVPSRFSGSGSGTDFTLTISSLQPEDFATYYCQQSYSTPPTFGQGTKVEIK
T4 sequence (VH, as listed by the source, chain 1 of 2): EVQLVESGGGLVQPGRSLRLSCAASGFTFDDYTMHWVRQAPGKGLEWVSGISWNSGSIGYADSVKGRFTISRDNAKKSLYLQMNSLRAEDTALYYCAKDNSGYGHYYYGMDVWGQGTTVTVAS
T4 sequence (VL, as listed by the source, chain 2 of 2): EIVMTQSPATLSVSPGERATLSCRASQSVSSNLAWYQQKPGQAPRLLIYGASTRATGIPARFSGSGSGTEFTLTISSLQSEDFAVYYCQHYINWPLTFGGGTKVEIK

B1: ADI-34145 IgG (antibody, V domains shown)
VH: EVQLLESGGGLVQPGGSLRLSCAASGFTFSSYAMSWVRQAPGKGLEWVSTISGSGGSTYYADSVKGRFTISRDNSKNTLYLQMNSLRAEDTAVYYCARLGGRRGSGSSYYYYYGMDVWGQGTTVTVSS
VL: not shown
notes: anti-ID IgG
- binding result (ADI-70327): no binding (tested: up to 200 nM)
- binding result (ADI-67445): no binding (tested: up to 200 nM)
- binding result (CTL-62223): no binding (tested: up to 200 nM)
- binding result (CTL-62227): no binding (tested: up to 200 nM)
- binding result (CTL-62228): no binding (tested: up to 200 nM)
- binding result (CTL-62240): no binding (tested: up to 200 nM)
- Kd (ADI-22523 IgG): 2.6 nM
- Kd (ADI-26954 IgG): 1.82 nM
- binding result (CTL-19613 IgG): no binding
- binding result (CTL-19672 IgG): no binding
- Kd (ADI-26906 IgG): 8.39 nM
- Kd (ADI-26913 IgG): 1.03 nM
- Kd (ADI-26920 IgG): 3.5 nM
- Kd (ADI-26916 IgG): 7.75 nM

B2: ADI-34134 IgG (antibody, V domains shown)
VH: QVQLVQSGAEVKKPGSSVKVSCKASGGTFSSYAISWVRQAPGQGLEWMGGIIPIFGTANYAQKFQGRVTITADESTSTAYMELSSLRSEDTAVYYCARGAPNYYGSGGYDDGWFDPWGQGTLVTVSS
VL: EIVLTQSPGTLSLSPGERATLSCRASQSVSSDYLAWYQQKPGQAPRLLIYGASSRATGIPDRFSGSGSGTDFTLTISRLEPEDFAVYYCQQFGRVPTFGGGTKVEIK
- Kd (ADI-22523 Fab): 4.46 nM
- Kd (ADI-26906 Fab): 36 nM
- Kd (ADI-26913 Fab): 86.5 nM
- Kd (ADI-26916 Fab): 110 nM
- Kd (ADI-26920 Fab): 29.8 nM
- Kd (ADI-26921 Fab): 92.7 nM
- Kd (ADI-26927 Fab): 25.6 nM
- Kd (ADI-26928 Fab): 182 nM
- Kd (ADI-26941 Fab): 112 nM
- binding result (CTL-19613 Fab): no binding

— patent US20250019439A1 (Adimab, published 2025)
